Experimental data as given in PMC8437803, “Structural basis of RNA processing by human mitochondrial RNase P” (Nature Structural & Molecular Biology, 2021).

Target: T1, Δ1–45 PRORP (human, UniProt O15091 46-583)
T1 construct: PRORP (MRPP3), human, without the predicted mitochondrial targeting signal (residues 1-45); also called MRPP3; Δ45-PRORP; source: E. coli BL21 (DE3) RIL, purified (HisTrap, TEV cleavage, heparin, Superdex 200); not shown: His6, N-terminal, cleaved
T1 sequence (looked up): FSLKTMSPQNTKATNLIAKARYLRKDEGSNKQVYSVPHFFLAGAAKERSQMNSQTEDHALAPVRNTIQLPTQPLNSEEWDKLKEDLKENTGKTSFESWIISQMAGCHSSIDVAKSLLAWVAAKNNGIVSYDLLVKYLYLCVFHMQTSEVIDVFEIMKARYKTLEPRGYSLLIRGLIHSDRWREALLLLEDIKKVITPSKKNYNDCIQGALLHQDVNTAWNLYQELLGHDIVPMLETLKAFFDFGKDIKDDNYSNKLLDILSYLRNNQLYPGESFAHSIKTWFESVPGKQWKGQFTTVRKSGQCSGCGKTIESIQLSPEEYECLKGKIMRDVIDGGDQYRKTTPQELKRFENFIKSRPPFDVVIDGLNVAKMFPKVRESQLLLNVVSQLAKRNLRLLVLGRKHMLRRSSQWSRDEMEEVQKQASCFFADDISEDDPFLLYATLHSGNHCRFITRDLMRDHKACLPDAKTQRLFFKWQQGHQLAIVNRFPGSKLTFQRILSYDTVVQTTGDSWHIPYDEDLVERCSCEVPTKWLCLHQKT
Experiment: cryo-EM structure; Δ1–39 TRMT10C–SDR5C1 complex mixed with pre-tRNA^Tyr and NADH, then PRORP added, 30 °C, 100 mM Tris-HCl pH 8.0, 100 mM NaCl, 250 μM EDTA (Mg2+-depleted), 2 mM DTT; complex purified on Superdex 200 Increase 3.2/300; single-particle cryo-EM, 3.0 Å
Conditions: both partners purified

binding result: binds
B1: Δ1–39 TRMT10C (enzyme, human, UniProt Q7L0Y3 40-403, looked up)
chain: MSSKIPAVTYPKNESTPPSEELELDKWKTTMKSSVQEECVSTISSSKDEDPLAATREFIEMWRLLGREVPEHITEEELKTLMECVSNTAKKKYLKYLYTKEKVKKARQIKKEMKAAAREEAKNIKLLETTEEDKQKNFLFLRLWDRNMDIAMGWKGAQAMQFGQPLVFDMAYENYMKRKELQNTVSQLLESEGWNRRNVDPFHIYFCNLKIDGALHRELVKRYQEKWDKLLLTSTEKSHVDLFPKDSIIYLTADSPNVMTTFRHDKVYVIGSFVDKSMQPGTSLAKAKRLNLATECLPLDKYLQWEIGNKNLTLDQMIRILLCLKNNGNWQEALQFVPKRKHTGFLEISQHSQEFINRLKKAKT
notes: TRMT10C (MRPP1), human, without the predicted mitochondrial targeting signal (residues 1-39); 6x His tag and TEV site on TRMT10C only; tag cleaved by TEV protease during purification; also called MRPP1; Δ39 TRMT10C; source: E. coli BL21 (DE3) RIL, coexpressed with SDR5C1, copurified (HisTrap, TEV cleavage, heparin, Superdex 200); not shown: His6, N-terminal, cleaved
